Six molecules from US10287340B2, “Anti-HIV domain antibodies and method of making and using same” (priority 2008, dated 2019) can be followed below.

“Also recorded” adds a separate entry of the source. Read-outs that look alike come from different tables or passages of the source.

The target in data set [1] is gp120Bal-CD4. Briefly: Binding ELISA to gp120Bal-CD4 (Example 3). Also on record: species or system HIV-1.
Data set [2] relates to Viruses pseudotyped with HIV-1 Envs. Briefly: Pseudovirus neutralization assay. In kind it is cell-based. The settings on record: for neutralizing activity compared to m36: side by side in the same experiment.
For a further data set, the system named is gp120Bal. Briefly: ELISA binding to gp120 alone. Also on record: species or system HIV-1. As to conditions: without CD4. For orientation: In an ELISA, binding on a coated surface is turned into a signal by an enzyme label.
Data set [3] has as its system gp140 from a clade C isolate GXC-44 (gp140GXC-44). Kind of data set: Binding ELISA to gp140GXC-44. Details: species or system HIV-1.
Data set [4] concerns gp120Bal-CD4. Briefly: Competition ELISA on gp120Bal-CD4. The class given is binding, HIV-1. As to the method:
(§1) Antigens were coated and blocked as described above. […] Mixtures were subsequently added to each well and incubated. Bound m36 was detected and the assay was developed as described above.

The test system of a further data set is gp140GXC-44. Briefly: Competition ELISA on gp140GXC-44. The class given is binding, HIV-1. As to conditions: in the absence of CD4. As to the method:
as §1

Data set [5] can be described thus: Storage of VH protein solutions at 4° C., precipitation. In kind it is physicochemical. As to conditions: stored at 4° C. for 4 weeks.
In the next data set the target is soluble CD4 (sCD4) (Homo sapiens, UniProt P01730). Kind of data set: ELISA binding to CD4 alone.
The next data set has as its target BSA (Bos taurus, UniProt P02769). Briefly: Binding ELISA to BSA (unrelated antigen).
Data set [6] in a line: Size exclusion chromatography, oligomerization. The settings on record: Superdex75, PBS.
The target in data set [7] is serum albumin from human (HSA) (Homo sapiens, UniProt P02768). Kind of data set: Binding of m36SAbp to human serum albumin. The settings on record: data not shown.
Data set [8] deals with serum albumin from bovine (BSA) (Bos taurus, UniProt P02769). Kind of data set: Binding of m36SAbp to bovine serum albumin. As to conditions: data not shown.
The target of data set [9] is serum albumin from mouse (MSA) (Mus musculus, UniProt P07724). Kind of data set: Binding of m36SAbp to mouse serum albumin. The settings on record: data not shown.
Chain of serum albumin from mouse (MSA) (P07724 25-608): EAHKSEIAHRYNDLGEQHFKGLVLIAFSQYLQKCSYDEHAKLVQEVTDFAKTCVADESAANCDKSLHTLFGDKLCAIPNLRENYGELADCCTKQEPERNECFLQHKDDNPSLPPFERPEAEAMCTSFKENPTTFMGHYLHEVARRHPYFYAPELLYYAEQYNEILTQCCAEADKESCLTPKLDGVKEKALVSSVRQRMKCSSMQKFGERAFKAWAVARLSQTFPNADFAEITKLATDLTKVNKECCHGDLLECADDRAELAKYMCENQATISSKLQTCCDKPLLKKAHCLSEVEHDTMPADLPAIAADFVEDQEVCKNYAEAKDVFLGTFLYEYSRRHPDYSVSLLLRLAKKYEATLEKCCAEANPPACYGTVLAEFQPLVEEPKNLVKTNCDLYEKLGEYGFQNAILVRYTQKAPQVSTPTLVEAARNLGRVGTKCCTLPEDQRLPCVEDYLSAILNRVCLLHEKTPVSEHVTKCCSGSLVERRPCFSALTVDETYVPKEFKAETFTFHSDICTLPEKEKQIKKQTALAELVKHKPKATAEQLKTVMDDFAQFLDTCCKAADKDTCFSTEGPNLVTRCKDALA

Chain of tethered gp140 from 89.6 (Q73372 32-496 limits assumed): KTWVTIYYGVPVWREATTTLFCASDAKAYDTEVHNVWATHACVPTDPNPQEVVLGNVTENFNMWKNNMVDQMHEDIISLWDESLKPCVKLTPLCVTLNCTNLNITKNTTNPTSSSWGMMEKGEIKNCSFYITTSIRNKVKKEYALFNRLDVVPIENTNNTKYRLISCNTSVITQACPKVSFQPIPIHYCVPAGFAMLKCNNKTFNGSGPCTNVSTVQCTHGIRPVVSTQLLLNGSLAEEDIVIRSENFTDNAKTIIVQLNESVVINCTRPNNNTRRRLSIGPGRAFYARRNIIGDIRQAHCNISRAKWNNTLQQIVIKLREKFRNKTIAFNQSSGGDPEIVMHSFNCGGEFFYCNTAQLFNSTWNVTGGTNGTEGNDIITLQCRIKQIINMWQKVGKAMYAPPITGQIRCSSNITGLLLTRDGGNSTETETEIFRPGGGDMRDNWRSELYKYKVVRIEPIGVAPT
Chain of serum albumin from bovine (BSA) (P02769 25-607): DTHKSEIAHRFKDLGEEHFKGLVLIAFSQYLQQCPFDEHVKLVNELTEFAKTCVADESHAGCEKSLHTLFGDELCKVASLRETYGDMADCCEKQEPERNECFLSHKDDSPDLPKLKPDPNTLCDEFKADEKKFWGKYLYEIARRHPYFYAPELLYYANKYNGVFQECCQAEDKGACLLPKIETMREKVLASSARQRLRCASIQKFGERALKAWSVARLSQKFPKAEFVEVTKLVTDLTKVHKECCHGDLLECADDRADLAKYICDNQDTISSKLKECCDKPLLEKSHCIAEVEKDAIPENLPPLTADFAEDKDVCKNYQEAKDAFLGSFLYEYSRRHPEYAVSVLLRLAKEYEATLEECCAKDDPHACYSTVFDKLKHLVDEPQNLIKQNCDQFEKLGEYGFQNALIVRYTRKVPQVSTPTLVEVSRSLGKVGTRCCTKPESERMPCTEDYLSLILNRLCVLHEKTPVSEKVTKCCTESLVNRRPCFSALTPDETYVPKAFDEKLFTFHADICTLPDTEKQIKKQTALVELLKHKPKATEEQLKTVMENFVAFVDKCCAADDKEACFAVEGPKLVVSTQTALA
Chain of BSA (P02769 25-607): as above

B1: m36c2Fc: m36 joined with human IgG1 Fc by a camel IgG2 hinge (protein)
chain: QVQLVQSGGGLVQPGGSLRLSCAASAFDFSDYEMSWVRQAPGKGLEWIGEINDSGNTIYNPSLKSRVTISRDNSKNTLYLQMNTLRAEDTAIYYCAIYGGNSGGEYWGQGTLVTVSSEPKIPQPQPKPQPQPQPQPKPQPKPEPECTCPKCP
modifications: left off: a dimerising Fc or GST
notes: m36 joined with human IgG1 Fc by a camel IgG2 hinge
The EC50 is the concentration needed to bring the measured effect to its halfway point. A higher EC50 goes with lower potency in that assay. Consider B1, for which, on gp120Bal-CD4 [1], the EC50 is ~0.5 nM. In data set [2], the “number of isolates neutralized” value is on record as “five isolates”, the “potency against 89.6 compared to m36” value was “higher than that of m36” and the “potency compared to m36h1Fc” value is reported as “did not exhibit higher potency”.

B2: m36h3Fc: m36 joined with human IgG1 Fc by a human IgG3 hinge (protein)
chain: QVQLVQSGGGLVQPGGSLRLSCAASAFDFSDYEMSWVRQAPGKGLEWIGEINDSGNTIYNPSLKSRVTISRDNSKNTLYLQMNTLRAEDTAIYYCAIYGGNSGGEYWGQGTLVTVSSELKTPLGDTTHTCPRCPEPKSCDTPPPCPRCP
modifications: left off: a dimerising Fc or GST
notes: m36 joined with human IgG1 Fc by a human IgG3 hinge
Regarding B2, the EC50 on gp120Bal-CD4 [1] was ~0.5 nM. Also, in data set [2], the “number of isolates neutralized” value is listed as “five isolates”, the “potency against 89.6 compared to m36” value is recorded as “higher than that of m36” and the “potency compared to m36h1Fc” value is given as “did not exhibit higher potency”.

B3: m36: human VH domain antibody (dAb) on m0 scaffold targeting CD4i epitope of HIV-1 gp120; CDR3 AIYGGNSGGEY (protein)
VHH: QVQLVQSGGGLVQPGGSLRLSCAASAFDFSDYEMSWVRQAPGKGLEWIGEINDSGNTIYNPSLKSRVTISRDNSKNTLYLQMNTLRAEDTAIYYCAIYGGNSGGEYWGQGTLVTVSS
For the molecule B3, the “binding to gp120 alone” value in the data set with gp120Bal is “not to gp120Bal or to soluble CD4 (sCD4) and BSA”. In addition, the “binding to gp140GXC-44” value was “did bind although weaker” in data set [3] (gp140GXC-44 alone) and “bound” in data set [3] (in the presence of sCD4). Also, the “competition with CD4bs antibody m14 for binding to gp120Bal-CD4” value in the data set on gp120Bal-CD4 [4] was “not with the CD4 binding site (CD4bs) antibody m14”. In addition, the “competition with CD4i antibody m16 for binding to gp120Bal-CD4” value in the data set on gp120Bal-CD4 [4] is “competed”. Further, in the data set on gp140GXC-44, the “competition with m14 for binding to gp140GXC-44” value is on record as “competed”. In addition, the “inhibition of the isolate from clade C” value in [2] (at 667 nM) is 100%. Besides, the “isolates completely (100%) inhibited” value in data set [2] (at 667 nM, 7 clade B isolates in panel) is 4 out of 7. In addition, the “neutralization of the clade E isolate GXE” value in data set [2] (at concentrations up to 667 nM) is on record as “did not neutralize”. Also, the “potency compared to peptide C34” value in data set [2] (average over panel) is “on average more potent”. Besides, in data set [2] (average, six clade B, one clade C, one clade A isolate, IC50s on molar basis), the “neutralization potency compared to scFv m9” value is recorded as “two-fold higher”. Also, the “cross-reactivity against HIV-1 isolates” value in [2] (clade A, B, C, and D) is reported as “cross-reactive”. For the same molecule, in data set [2] (clade B isolate 89.6 and clade-D isolate Z2Z6), the “neutralization activity compared to scFv m9” value is given as “lower neutralization activity”. Besides, the IC90 entry in [2] (clade C isolate GXC-44 and clade B isolate NL4-3) was “very low IC90s”. The precipitation on storage result in [5] is “no precipitation”. The “binding to tethered gp140 from 89.6” value is given as “enhanced” with tethered gp140 from 89.6 (after gp140 bound to CD4) and “bound” in the data set with tethered gp140 from 89.6 (without complexation with CD4). The “binding to CD4 alone” value in the data set with soluble CD4 (sCD4) is “not to gp120Bal or to soluble CD4 (sCD4) and BSA”; with soluble CD4 (sCD4) (listed as b5) it was “neither gp120 nor CD4 alone”. In the data set with BSA, the “binding to BSA” value was “not to gp120Bal or to soluble CD4 (sCD4) and BSA”. Besides, the oligomeric state entry in data set [6] is reported as “monomeric”.

B4: m36b0Fc: m36 fused to human IgG1 Fc without peptide linker, MW~80 kDa (protein)
VHH: QVQLVQSGGGLVQPGGSLRLSCAASAFDFSDYEMSWVRQAPGKGLEWIGEINDSGNTIYNPSLKSRVTISRDNSKNTLYLQMNTLRAEDTAIYYCAIYGGNSGGEYWGQGTLVTVSS
modifications: left off: a dimerising Fc or GST
notes: m36 fused to human IgG1 Fc without peptide linker, MW~80 kDa
With B4, in the data set on gp120Bal-CD4 [1], the “binding to gp120Bal-CD4 compared to m36” value was “bound slightly better”. Besides, in data set [2], the “inhibitory activity against 89.6 and NL4-3” value was “decreased inhibitory activity”; the “neutralization of TCLA isolate IIIB” value is “lost neutralization”.

B5: m36CH3: m36 fused to human IgG1 CH3 domain without linker, MW~60 kDa (protein)
VHH: QVQLVQSGGGLVQPGGSLRLSCAASAFDFSDYEMSWVRQAPGKGLEWIGEINDSGNTIYNPSLKSRVTISRDNSKNTLYLQMNTLRAEDTAIYYCAIYGGNSGGEYWGQGTLVTVSS
modifications: left off: a dimerising Fc or GST; small tags and cut ends
notes: m36 fused to human IgG1 CH3 domain without linker, MW~60 kDa
For B5, the “binding to gp120Bal-CD4 compared to m36” value in the data set on gp120Bal-CD4 [1] is “comparable to that of m36”. Besides, in data set [2] (10 isolates), the “isolates with loss of neutralization compared to m36” value was 7 of 10. Also, the “IC50s compared to the corresponding ones for m36” value in data set [2] (IIIB, 89.6 and NL4-3) is “significantly higher”. In addition, the “neutralizing activity compared to m36” value in data set [2] is “significantly weaker”.

B6: m36SAbp: m36 fused to a serum albumin binding peptide (SAbp), MW~18 kDa (protein)
chain: QVQLVQSGGGLVQPGGSLRLSCAASAFDFSDYEMSWVRQAPGKGLEWIGEINDSGNTIYNPSLKSRVTISRDNSKNTLYLQMNTLRAEDTAIYYCAIYGGNSGGEYWGQGTLVTVSSQRHPEDICLPRWGCLWGDDD
modifications: left off: small tags and cut ends
Take B6: the “binding to gp120Bal-CD4 compared to m36” value in the data set with gp120Bal-CD4 [1] is given as “comparable to that of m36”. In data set [2], the “neutralizing activity compared to m36” value was “slight but not significant decrease; also recorded: about the same neutralizing activity”. Besides, the “binding to serum albumin” value in data set [7], in data set [8] and in data set [9] was “binds” in each case.
